Assay results from US7358088B2, “Peptides and compositions which modulate apoptosis” (ImmunoGen, Inc., priority 1995, dated 2008).
Ends that are not written are not given here.

Tests used:
[1] = biological target: T1, Bcl-xL/Bak GD domain interaction (Homo sapiens, UniProt Q07817); assay: High through-put screening assay 2: GST-Bcl-xL binding to biotinylated Bak GD peptide on neutravidin wells, ELISA; conditions: competing peptide added, ELISA signal
T1 construct: made in house; host or cells: E. coli
T1 sequence (Q07817 whole entry, the tested form may be a part): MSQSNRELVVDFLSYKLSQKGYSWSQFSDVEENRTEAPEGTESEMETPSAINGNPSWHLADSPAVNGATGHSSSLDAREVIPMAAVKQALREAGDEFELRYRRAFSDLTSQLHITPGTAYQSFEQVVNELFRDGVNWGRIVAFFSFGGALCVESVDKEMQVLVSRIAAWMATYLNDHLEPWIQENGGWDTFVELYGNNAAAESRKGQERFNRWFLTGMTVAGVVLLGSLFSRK
Procedure: An assay was developed to screen for compounds that block the interaction between the Bcl-2 homologs, Bcl-xL and Bak. A synthetic peptide corresponding to the Bak GD binding domain ([…] [SEQ ID NO: 35]) was biotinylated and bound to wells coated with neutravidin. […] Peptides encompassing the GD domain from various Bcl-2 family members were tested for their ability to block GD domain-mediated interactions in this assay. Peptides tested: Bcl-w [SEQ ID NO: 39] […] ([…]), Bak [SEQ ID NO: 36]([…]), Bak-15 [SEQ ID NO: 37] ([…]), Bak-15L78A [SEQ ID NO: 38] ([…]), control (no peptide).
In a modification of the high through-put screening assay 1 described herein, wells are coated with an avidin derivative, to which a biotinylated peptide/protein is bound. A GST-fusion protein that can interact with the biotinylated peptide/protein is added in the presence or absence of test compounds. The plates are incubated and then unbound GST-fusion protein is removed by washing. The amount of GST-fusion protein specifically bound to the tethered peptide/protein is determined by ELISA using an anti-GST antibody conjugated to horse radish peroxidase. Compounds which block the interaction between the biotinylated peptide/protein and the GST-fusion protein cause a decrease in the ELISA signal.
In a specific example, an assay was developed to screen for compounds that block the interaction between the Bcl-2 homologs, Bcl-xL and Bak. A biotinylated Bak GD domain peptide (amino acid residues 71-89; N-biotinylated […] [SEQ ID NO: 35]) was bound to wells coated with neutravidin. […] Using this assay, peptides from Bcl-2 family members were identified which block the Bcl-xL/Bak GD domain interaction (FIG. 10).

Rat-1 cells = assay: Transient transfection cell killing assay (loss of β-galactosidase-positive blue cells); type: cell-based; conditions: for cell killing activity (reduction in number of blue β-gal expressing cells): Rat-1 cells co-transfected with β-galactosidase marker plasmid, 24 hours post transfection, relative to control vector
Procedure: The transient transfection assay procedure is similar to that previously described for detecting apoptosis induced by IL-1E-converting enzyme (Miura et al., Cell 75: 653-660 (1993); Kumar et al., Genes Dev. 8: 1613-1626 (1994); Wang et al., Cell 78: 739-750 (1994). One day prior to transfection, Rat-1 cells were plated in 24 well dishes at 3.5X10^4 cells/well. The following day, the cells were transfected with a marker plasmid encoding β-galactosidase (0.16 μg), in combination with an expression plasmid encoding Bak (0.42 μg), by the Lipofectamine procedure (Gibco/BRL). At 24 hours post transfection, cells were fixed and stained with X-Gal to detect J-galactosidase expression in cells that received plasmid DNA (Miura et al., supra). The number of blue cells was counted by microscopic examination and scored as either live (flat blue cells) or dead (round blue cells). The cell killing activity of Bak in this assay is manifested by a large reduction in the number of blue cells obtained relative to co-transfection of the β-gal plasmid with a control expression vector (i.e., with no bak cDNA insert).
The interpretation that loss of blue cells reflects the cell killing function of Bak is supported by a variety of observations: • 1. Rat-1 cells are rapidly killed by enforced Bak expression in stable transfection assays; • 2.
Enforced bak expression induces apoptosis in stable Rat-1 cell lines transfected with an inducible bak expression plasmid. In order to more rapidly assess the cell killing function of a large number of bak mutants, a transient transfection assay was employed. Rat-1 cells were transfected with a marker plasmid encoding β-galactosidase, in combination with an expression plasmid encoding Bak, or various control plasmids.

Bcl-xL = Bcl-xL (Homo sapiens, UniProt Q07817); assay: In vitro protein binding assay, 35S labeled protein with GST-Bcl-xL on glutathione-agarose beads; design: made in house; host or cells: E. coli; conditions: tested both in vitro and in transfected COS cells
Bcl-xL, sequence (Q07817 whole entry): as the sequence (Q07817 whole entry, the tested form may be a part) above
Procedure: A). Bak/Bcl-xL interactions measured in vitro. ^35S labeled in vitro translated Bak (lane 1) was mixed either with GST-Bcl-xL (lane 2) or GST (lane 3). The complexes were captured on glutathione-agarose beads, and bound ^35S labeled Bak protein was detected by electrophoresis on SDS polyacrylamide gels followed by autoradiography.
The beads were removed by centrifugation and the supernatants were incubated with GST or GST-Bcl-xL (final concentration […]) at 4° C. for 1 hour. The GST fusion proteins and any interacting proteins were recovered by incubation for 1 hour with an additional […] of GSH-agarose beads. The beads were washed twice with NP-40 lysis buffer followed by two washes with NP-40 lysis buffer without NP-40. Proteins were eluted from the beads by incubation in SDS-PAGE sample buffer at 100° C. for 5 min and loaded onto 4-20% SDS-polyacrylamide gels. Following electrophoresis, gels were fixed and incubated in a fluorography enhancing solution (Amplify; Amersham). The gels were dried and subjected to autoradiography at −70° C.

HeLa cells = assay: Microinjection assay, protection from anti-Fas and cycloheximide induced death; type: cell-based; conditions: for effect on cell viability: HeLa cells, microinjected peptide, absence of anti-Fas treatment
Procedure: HeLa cells (>100 cells/condition) were microinjected without (buffer) or with GST-Bcl-xL (0.3 mg/ml) in the absence or presence of GD domain peptides (0.5 mg/ml) and the recovery of live injected cells was determined after treatment with anti-Fas and cycloheximide for 18 hours. FITC-dextran was coinjected as a marker. A 15-amino acid Bak GD domain peptide (Bak-15; residues 73-87; […] [SEQ ID NO: 37]) and a mutant Bak GD domain peptide with an alanine substitution at leucine 78 (Bak-15L78A; […] [SEQ ID NO: 38]) were tested.
A cell-based microinjection assay is provided for the identification of agents that antagonize GD domain-mediated interactions and inhibit the cell death suppression activity of Bcl-xL and/or Bcl-2. One or preferably more than one cells are microinjected with a death suppressor protein, such as Bcl-xL or Bcl-2, which protects the cells from induction of cell death by an apoptosis-inducing agent, in the presence of a test compound, composition or agent. Compounds that bind to the death suppressor protein and prevent its protective function, resulting in the death of the microinjected cells, can thereby be identified.
The ability of GD domain peptide variants to inhibit the function of Bcl-xL correlated with their ability to bind to Bcl-xL (see FIG. 10). […] Similar results were obtained with MRC5 human diploid fibroblasts where protection from anti-Fas-induced death by microinjected Bcl-xL was inhibited by co-injection of the wild-type, but not mutant, Bak BH3 peptide.
Microinjection procedure: HeLa cells were plated in complete DMEM in 60 mm dishes at 2.4×10^5 cells per dish. […] Following injection, the cells were returned to the incubator and after 1 hour the number of injected cells was determined by fluorescence microscopy. Cells were then treated with anti-Fas mAb (7C11) and cycloheximide ([…]) and the recovery of injected cells remaining after 18 hours was determined.

Row | Molecule | cell killing activity (reduction in number of blue β-gal expressing cells) (Rat-1 cells) | Bcl-xL binding capacity (Bcl-xL) | further results
1 | AADPLHQAMRAAGDEFETRF [Bcl-w peptide] | – | – | inhibition of Bcl-xL/Bak GD domain binding [1]: did not block binding
2 | Bax: Bcl-2 homolog and Bcl-2 interacting protein that induces apoptosis | eliminate blue cells | interact specifically with Bcl-xL | –
3 | Bcl-xL: long form of bcl-x product, suppresses apoptosis | – | – | restoration of number of blue cells on co-transfection with Bak (Rat-1 cells; Rat-1 cells, co-transfection of Bak with Bcl-xL): partially restored
4 | GSDALALRLACIGDEMDVSL [Bip1a peptide, peptide encompassing the GD domain from Bip1a] | – | – | inhibition of Bcl-xL/Bak GD domain binding [1]: concentration-dependent inhibition of binding
5 | GST-Bcl-xL: bacterially-expressed GST fusion protein of the survival protein Bcl-xL | – | – | protection from death induced by Fas ligation (HeLa cells; HeLa cells microinjected with 0.3 mg/ml protein, anti-Fas and cycloheximide 18 hours): efficiently protected HeLa cells from death
6 | PEM: truncated Bak protein derivative corresponding to amino acids 58-103 (PEMVTLPLQPSSTMGQVGRQLAIIGDDINRRYDSEFQTMLQHLQPT; not fully specified) | – | bound Bcl-xL | –
7 | QVG: truncated Bak protein derivative corresponding to amino acids 73-123 (QVGRQLAIIGDDINRRYDSEFQTMLQHLQPTAENAYEYFTKIATSLFESGI; not fully specified) | significantly reduced the number of blue cells | bound Bcl-xL | –
8 | QVGRQAAIIGDDINR [Bak-15L78A] | – | – | effect on cell viability (HeLa cells): neither peptide had an effect on cell viability
9 | QVGRQLAIIGDDINR [Bak-15] | – | – | effect on cell viability (HeLa cells): neither peptide had an effect on cell viability
10 | STKKLSECLKRIGDELDSNH [Bax peptide, peptide encompassing the GD domain from Bax] | – | – | inhibition of Bcl-xL/Bak GD domain binding [1]: concentration-dependent inhibition of binding
11 | Bip1a: Bcl-2 interacting protein that induces apoptosis, lacks BH1 and BH2 (protein) MSEVRPLSRDILMETLLYEQLLEPPTMEVLGMTDSEEDLDPMEDFDSLECMEGSDALALRLACIGDEMDVSLRAPRLAQLSEVAMHSLGLAFIYDQTEDIRDVLRSFMDGFTTLKENIMRFWRSPNPGSWVSCEQVLLALLLLLALLLPLLSGGLHLLLK | eliminate blue cells | interact specifically with Bcl-xL | –
12 | Bax ΔGD: Bax mutant with small deletion removing the conserved GD domain motif (protein) MDGSGEQPRGGGPTSSEQIMKTGALLLQGFIQDRAGRMGGEAPELALDPVPQDASTKKMELQRMIAAVDTDSPREVFFRVAADMFSDGNFNWGRVVALFYFASKLVLKALCTKVPELIRTIMGWTLDFLRERLLGWIQDQGGWDGLLSYFGTPTWQTVTIFVAGVLTASLTIWKKMG | impaired in their ability to eliminate blue cells | no longer have the capacity to interact with Bcl-xL | –
13 | Bip1a ΔGD: Bip1a mutant with small deletion removing the conserved GD domain motif (protein) MSEVRPLSRDILMETLLYEQLLEPPTMEVLGMTDSEEDLDPMEDFDSLECMEGSDALRAPRLAQLSEVAMHSLGLAFIYDQTEDIRDVLRSFMDGFTTLKENIMRFWRSPNPGSWVSCEQVLLALLLLLALLLPLLSGGLHLLLK | impaired in their ability to eliminate blue cells | no longer have the capacity to interact with Bcl-xL | –
